Assay: soluble fraction after stress (log2 fold change); higher = more stays soluble; pooled small domains, quantitative proteomics
Conditions: stress: 50 degC
Method in brief: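 Each library was heated to 50°C as a stress step. The libraries, made up of small protein domains, were pooled and analysed at high throughput by quantitative proteomics. The reported value is the base-two logarithm of the fold change in each protein's soluble amount after stress, taken as a measure of aggregation propensity. The higher the value, the more protein stays in solution.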

First: HMDAINITTYKGQITLTGTKTGTLVGIYNTAGMLVKSMMSKGEKLYFDNLPSGVYIIKVGEEEPRKVQVI
Second: HMLKREDEVIVVAGKDKGKRGTITQLVGDDRVIVAGVNMVKRHTKPNPNLGQPGGIVEREASLHISNV
The “soluble fraction (log2)” value of the first is lower: -0.165 for the first, 0.296 for the second.

Compared with “HMPPLKYLKVKSYLEAVAVKAESAMRMPTVRELMNQFNVSLATVNRALSELENDGVIVRRQGSGIVAAG”, “HMETTEELISKTVPISYADMAALTGILDGVKSARGDIQVDDRTSTIIIHDIQSSIDEMMRLIKILD” is lower in “soluble fraction (log2)” value: 0.147 for the first, -0.999 for the second.

First: HMKVDRLISIVLVLLDKNRISAQELADMFEVSLRTIYRDIDAIELAGIPIRSTSGVGGGFEIMPNY
Second: HMDTLHGRILEEFSRKIVDGTWPPGFSLPKETELADQYGVSRMTMNKVLTRLASDGFVIRRKRSGTVVAQP
The “soluble fraction (log2)” value of the first is higher: -0.577 for the first, -1.21 for the second.

“HMVTTDPIADMLTRIRNASSQKHKSVDVPASKEKLAIAQILFEEGYIKSFEEIKEENNQGVIRITLKYTEK” and “HMQELGVISEGKYNIELNMVSWNDREPKYDIRSWAPDHSRMGKGISLTEEEMERLVELWNTRNE” are within 0.2 log units of each other in “soluble fraction (log2)” value: -0.0766 for the first, -0.248 for the second.

Going from “HMSMDYYNILGVNRNASTGEIKKAYKRASMQHHPDRGGNSDEFIKVQQAYDTLSDNHKRQAYDNP” to “HMKEIPTKKGDMLEIYEANGKYILKYPTFNITMPEVVKEIPKEAVDSYLAGKHDGEELINYANFGFWKS”, the “soluble fraction (log2)” value falls from 0.0774 to -0.185.

Compared with “HMVSNRMVYSDFQQKWINNQVESINVNADKMTIEVTTQDEKKYTVYAPSSMIEFLNEQYPKDDIKIEYVAP”, “HMDKEVMEAVLRILYDDDFNPDQRDAILYFFVQELDQRTISEITGAKIGTVKKRIHDGLKKLRQKLAKEDL” is lower in “soluble fraction (log2)” value: -0.147 for the first, -1.36 for the second.

“HMKTTVEVSPIARPGAVASGSVKFGSGVTAEWMLDQYGRLGLDKPTGKPTEQDIKEFQIELQKAL” and “HMEQMSLISKKKGERIDKFLGENLGDLSRSYIQKLLKDGLILVNGKKVKANYKLNEGDQIDVEVPDP” are within 0.2 log units of each other in “soluble fraction (log2)” value: 0.165 for the first, 0.303 for the second.

Compared with “HMTVLTDEIKVILISYIKENDFKKKHGNRKMMMTAQDMYDELVEKGYKISYPTVTQYVQKYRENETT”, “HMELDREALSDGLRRLSQLLAEDDIESRTLFRELAPGLKEQLGDDAVEKLAGHISRYEFEQAGALLATSG” is higher in “soluble fraction (log2)” value: -1.27 for the first, -0.0341 for the second.

Compared with “HMPPSVAETLKRLRRHKSLSLEELAQMSGVSRSMLSQIERDATNPTVATLWRITAALGVSIDEVLGV”, “HMEKEFLFNGGKVVMNYEADRIQIMHDTKPGQDVITLMKKNGFKWSPFNKAWQRQITANAIYTTKHLINQ” is higher in “soluble fraction (log2)” value: -1.87 for the first, -1.5 for the second.

Compared with “HMLLGPDALTNRELDVLALLERRLSNKEIGALLYISPRTVKRHTINIYQKLHVNNRRAAVAQAKALGLMPD”, “HMQETILFGQQKAINNLSSDTGLSENDLDSYLKKRYKKPLYQLTQSEGADIINGFQDGSLSKNSILDYIKP” is higher in “soluble fraction (log2)” value: -1.79 for the first, 0.16 for the second.

Going from “HMSAGISVADVTNRTYDEGYNTLTAQHLLVNKVYEANETIPLDTIIRTDPVAGTKVPDNTSITVYVSSGK” to “HMDDATTQLADRLLDLRRKAGYSQEQLADLLGVSRQAISKWEGAQGRPEVDNVVKLAQIYRVSTDFILTGS”, the “soluble fraction (log2)” value falls from 0.000832 to -0.552.

First: HMKTQFGTIVKQLRERKGMDQKQLGEIVGVSDKTVSSWEINRTEPKMGIVQQLADYFGVSTDYLIKG
Second: HMEVQVGKQVRAFRETLGMTVQQFAERTGFSAALLAQIENRMVSPSLGTLVKIANTFGTTVSSFIG
The “soluble fraction (log2)” value of the first is higher: 0.295 for the first, 0.0076 for the second.

Compared with “HMHGSSVEIPNIYGLPASEAVQLLDKADLRYEVIDSVYTTEVPKGAVYDLSPKAGSRVKAGRIIFLTLNA”, “HMDQNDYMLTRIRNGQMRNKVSVSMPASKIKSAIAAVLKDEGYIENFALNDSSGKPSLIVNLKYYAGQPV” is higher in “soluble fraction (log2)” value: -0.756 for the first, -0.0135 for the second.

First: HMVVPELNLAQQDVLRALRQRGRATADHLSVDTHRPVSEVMGILLGLEIAEVLYRVEGGWFVPKTAR
Second: HMQSSTAISFNQFQKSWLSNNIKSFQLGEDKMTVRGSLKNGTQYETIVPSERLFQFIGQHPKDGQVQEMY
The “soluble fraction (log2)” value of the first is lower: -0.653 for the first, 0.042 for the second.

“HMEREQNILQGREVVERELRRLGLAEAYTVSDIAKALKFDDEEQFLAKVGFGDIQSRQISGAIALMEKN” and “HMASDQGAGALREVSAFFEKHGRVPDPDAVDHDEMRLGSIWASIKSAPTDQMRLEDRFGLLD” are within 0.2 log units of each other in “soluble fraction (log2)” value: 0.0472 for the first, 0.1 for the second.

Compared with “HMAEEPLRIWTDLQGRSIEASFIKFSGNNIVIKMKSGRDYEVARSLFSPGDQKYLSDLKKSTPE”, “HMILNPADEEKMNLINFELQQRGLEINDKEMQYIFTHHSRDLNSLLNLAEKLDEISHQEKKSISINLIKKI” is higher in “soluble fraction (log2)” value: -0.701 for the first, -0.0218 for the second.

“HMQKEIKVPDVANMALSEAVEKLQNEGFKVADEQKEVSSDEIEEGKVVKTSPVAGTKKTKGSEITIYISSG” and “HMGYTPGVVIQKSAILEEINQPDLALGMMLEAVKKDSQNLDILNRLVTLLIDQKKNEDAEIYNKKIIT” are within 0.2 log units of each other in “soluble fraction (log2)” value: -0.0254 for the first, 0.0254 for the second.

Compared with “HMDFTMSEIQTAMAALPRGYRTVVQLYLVDGYSHKEIAEMLGVDVNTSKSQLSRGRKQLQAFLAAMS”, “HMPMINLYQRLNLPPTASRAEIEAALAQYRSELSTAEIRGVQEWLLVNEVRHRYDAKLRQEQPSFFI” is higher in “soluble fraction (log2)” value: -0.674 for the first, -0.471 for the second.

“HMDDEELDALKGIPANEYTQEQIKQISEVFHTLQKNEVKDWLNSLQLRNIELPFELRNEVFSQ” and “HMEDLMEERKEHLLSVMKDPAYVPMKQKELAMLLNVPKGLREELNQVLDALVAEGSVVMSKRGKYTIPQ” are within 0.2 log units of each other in “soluble fraction (log2)” value: 0.159 for the first, -0.0312 for the second.

First: HMSSVEQAILETLSKEHSHLTSLQVFEEIRGRLPAVNQSTVYRALERLVEQGVVSVSDMGTHAAVYE
Second: HMAMYYVIGGDGQQYGPIDEATVRGWLGEGRVSAASLSFKTGEAQWIPLRDRPELADVLATA
The “soluble fraction (log2)” value of the first is lower: -0.177 for the first, 0.112 for the second.

Compared with “HMREELIALYRAIARLSEDEQELLNLFYFARRPLSEIAQLTGMTPGAAKTRLYRARRHLRREMEEDGYG”, “HMKQQTRAELLDEFAKAHAERGLYFNRDYEQGEIQALQPDKAREYLQSALEARTERQQASEQDR” is higher in “soluble fraction (log2)” value: -0.986 for the first, 0.274 for the second.

“HMGEVVRAPMPGNVLKMEVAQGQEVEEGDLLLVLEAMKMENDIVAPKGGIVIQLVVDKGMVVETDDPLVVI” and “HMGVGIAEAMKHVADEDYGDLSSEFQRIFSAVDGGSTLGDAVRAQMRATSSAGLRRTLSVLAMSVE” are within 0.2 log units of each other in “soluble fraction (log2)” value: 0.0323 for the first, 0.208 for the second.

First: HMNAEWMFDARKIPGLVMNYLRRIAVRAIEEKHYSPELVADLFGIDRTSIYDWLRKYRQQGEEALDTRKA
Second: HMEISEILNPPLVTAMAERYPEVDVSYYRDKYILYYESREHKITDHRRNFEKWLLVESQKEEN
The “soluble fraction (log2)” value of the first is higher: 0.012 for the first, -1.07 for the second.

Going from “HMNLEQTIVLGKRLFNNALDTLGKKQRSIKNKQINKLLELLNFKNMNELYQSIGVGDKNPLLMAQMML” to “HMARPLHVDALIHLGTEIGSRVGGAHAGPHLLVAGHSPMSELVYARLLGIPTLGWMRGQLTFVNLSK”, the “soluble fraction (log2)” value rises from -0.458 to 0.155.

Going from “HMLQMSDSSALEAILDEVLGSEMGQKALSDIEAGNMKAMGFIIGQSMKLSKGQANPQIINKLLQQRLK” to “HMFQPEQISKLNELETLVLDFIIKSPDKVQKATIRSLATQLHVSTTTIVRMSTKLGFNGWSELKFFLKNQS”, the “soluble fraction (log2)” value falls from -0.000287 to -2.15.

Compared with “HMDTVEALTEQLKKLDKRGEGQIPAPEFKQYMMNMGGKMTAEELDEMMKVADPGKEGVVNIAEFADAL”, “HMTLSDDEFEIIKSLIIDTLKEEALTINALTKKINHKEAKTIQVIRFLLDNGLVAENNLMKLFVI” is lower in “soluble fraction (log2)” value: 0.35 for the first, -0.821 for the second.

First: HMSRLLERARDLMAKPGAWLSAEGGAYALRLSPDRRSRISLTLTETEFRALIDQPGLRVRPGGGWSGRA
Second: HMTSSSGTITADWLNVRSGAGTNFSRLGSIAGGTRLTVISVHGEWYKITASFEGEIRTGYVHSQYVQMDGE
The “soluble fraction (log2)” value of the first is higher: -3 for the first, -3.96 for the second.

Going from “HMDITTIIADVPGPKTQIKVDIKNTSLHIFGGMNFKKEIDIGDNKEIINIKYINGTLTVKLKT” to “HMQQVDWGSVFGDFGTMFKDQLQPTIDRLRRMAQSDTFRQSSLEEQQILYSLIEKLERSGTA”, the “soluble fraction (log2)” value falls from 0.089 to -1.03.

“HMRSLAVGNVVSEEGKPSYLLLDSKRTMLFSENSIPSLYLEDGRRVIVNYTLLDEDYQGYDFRIHVNDIDT” and “HMYFGDADGNKKVDAADALYLKRHLADWEDYRELPQKTNVSWMDEASPANLMILERHIAGWKDYEMLPYT” are within 0.2 log units of each other in “soluble fraction (log2)” value: -0.113 for the first, -0.293 for the second.

“HMQYKVMDVTVDGNPVIEFQNLNSKIKWIENNPDAIIQNIKTSSFEADQKRIVGTSRGPFWIVIKPDF” and “HMPASGISSEIIYDGILIEENLRQLKKDKAWLMDQLKKKGISSVSEVFLATLNKGGSLYIDKY” are within 0.2 log units of each other in “soluble fraction (log2)” value: -0.144 for the first, -0.0117 for the second.

Going from “HMDEGQEHYVKETDLPFYSEADPASSVIFPLVLNQKLIEKERKDDWIRALEPTTGLVGWVLLKSLSPQQLS” to “HMIQADFIPQVEQRLADRGLSMSGDVMAAFLDRAGYGLRHVSNEIEKLSLYLGDRKKVTVEDVVQMVAPVR”, the “soluble fraction (log2)” value falls from 0.124 to -0.283.

“HMENRLREVRDEIATRHGILPTVFINDRVLMNIHSKKPKDVSQLWQVDGISDEFIMKYGPEFIAEYKKKAK” and “HMIDLPDIDIDFAKRTGVLEHITHTPARLETGKQHNTGVYFTDIPRGVDGLATMDHKRAEQLGYFKLDML” are within 0.2 log units of each other in “soluble fraction (log2)” value: 0.0216 for the first, 0.0268 for the second.

“HMDPTVEENKLNPRDLLIIQRVKEGRTNKEIAEELNVAEITVKKQLSSLYQRYKVHNRNQLLLALD” and “HMDGEAQTYVEYGKWFPADLPLEAVRQLADGVPVTKELVAALNPRRSEWEEIKAGLDKIGYPNELL” are within 0.2 log units of each other in “soluble fraction (log2)” value: 0.117 for the first, 0.0308 for the second.

Compared with “HMGAEWTEMRVWTSTSGSKVTAEASSLTNGQVTLETKSGKRITLSIRKLVEADQKFLEAHFSK”, “HMDYYDTLGVPRNASQSDIKKAYKKQSMQHHPDRTGGDDTKFKDVNEAYQVLSNSEKKQMYDQFGTA” is higher in “soluble fraction (log2)” value: -0.947 for the first, 0.0532 for the second.

“HMQAKDVEVPDYVGKSFVSIKENNPNDFKFEVKSEYDESKEMGVILDQEPKGGSMKVKSGSTITVTV” and “HMNLSPADFSSVRNALGLSLSTVAKESGINRNYLSNFEKKKHFLEETAKVKLRDYYMSIDPDAFAAAL” are within 0.2 log units of each other in “soluble fraction (log2)” value: -0.0106 for the first, -0.177 for the second.

First: HMGGLAEIILNAIEIEGGFLPITDKSAPELIQSRLGMSKKAFKEAVGTLYKNRDIAIEPNGLRKI
Second: HMNKYQFESKIHIYRATKRMTQQELADLVGVSRQTIMQLERNRYNPSMMLAYGIAKVFDVTIEDLFDFSEV
The “soluble fraction (log2)” value of the first is higher: 0.0577 for the first, -2.05 for the second.

“HMEIGLIRVDSRLIHGQVITKWLNYSKANVIVVVDDELSKDSFMSEIYKASAPNGIIVEILSIDDFMKNT” and “HMGAAAQLLHAVVLRVPAEDTMKFVSETPELRRYLGAPLGPTAALVRPGQEQELAAALQAHGILVEFDE” are within 0.2 log units of each other in “soluble fraction (log2)” value: 0.00544 for the first, -0.0602 for the second.

In the case of “HMDMAENEEYKVIMGQAQQLAEQFFPADDNTRRIMLGQLKLENYSLYLLTKQILDEATKGQAAAAN”, the “soluble fraction (log2)” value is reported as 0.0229.
